Experimental findings from PMC3940072 (Journal of molecular biology, 2013) are described below.

By stoichiometry N is commonly meant the number of molecules, sites or subunits per partner or assembly.

The series “cryo-EM structure” concerns the molecule itself. Briefly: cryo-EM structure.
The target in another series is T1, KaiC-R468C (Synechococcus elongatus, UniProt Q79PF4 1-519, R468C).
T1 sequence: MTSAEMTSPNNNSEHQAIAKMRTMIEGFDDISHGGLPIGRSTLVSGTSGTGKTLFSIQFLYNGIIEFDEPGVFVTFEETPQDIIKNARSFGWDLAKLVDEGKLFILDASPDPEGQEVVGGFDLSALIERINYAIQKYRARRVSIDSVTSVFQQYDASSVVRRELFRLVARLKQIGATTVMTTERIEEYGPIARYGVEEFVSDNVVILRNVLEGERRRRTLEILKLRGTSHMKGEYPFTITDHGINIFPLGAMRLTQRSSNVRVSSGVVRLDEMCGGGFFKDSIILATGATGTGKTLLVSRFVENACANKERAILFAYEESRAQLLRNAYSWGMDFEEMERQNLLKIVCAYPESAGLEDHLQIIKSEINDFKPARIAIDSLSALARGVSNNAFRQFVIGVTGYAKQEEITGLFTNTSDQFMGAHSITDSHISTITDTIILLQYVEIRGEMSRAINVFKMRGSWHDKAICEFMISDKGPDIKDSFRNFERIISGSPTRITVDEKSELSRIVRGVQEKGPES
The series can be described thus: native gel or EMSA.

B1: KaiC-Δ489 (C-terminally truncated form of S. elongatus KaiC) (domain or fragment, Synechococcus elongatus, UniProt Q79PF4 1-489, looked up)
chain: MTSAEMTSPNNNSEHQAIAKMRTMIEGFDDISHGGLPIGRSTLVSGTSGTGKTLFSIQFLYNGIIEFDEPGVFVTFEETPQDIIKNARSFGWDLAKLVDEGKLFILDASPDPEGQEVVGGFDLSALIERINYAIQKYRARRVSIDSVTSVFQQYDASSVVRRELFRLVARLKQIGATTVMTTERIEEYGPIARYGVEEFVSDNVVILRNVLEGERRRRTLEILKLRGTSHMKGEYPFTITDHGINIFPLGAMRLTQRSSNVRVSSGVVRLDEMCGGGFFKDSIILATGATGTGKTLLVSRFVENACANKERAILFAYEESRAQLLRNAYSWGMDFEEMERQNLLKIVCAYPESAGLEDHLQIIKSEINDFKPARIAIDSLSALARGVSNNAFRQFVIGVTGYAKQEEITGLFTNTSDQFMGAHSITDSHISTITDTIILLQYVEIRGEMSRAINVFKMRGSWHDKAIREFMISDKGPDIKDSFRNFERI
modifications: persistently phosphorylated (hyper-phosphorylated); sites not determined for this sample
As for B1, the “stoichiometry N” value in “cryo-EM structure” amounted to 6.

B2: wild-type Synechococcus elongatus KaiB (natural protein, UniProt Q79PF5 1-102, looked up)
chain: MSPRKTYILKLYVAGNTPNSVRALKTLKNILEVEFQGVYALKVIDVLKNPQLAEEDKILATPTLAKVLPLPVRRIIGDLSDREKVLIGLDLLYGELQDSDDF
As to B2, the binding result in the series with KaiC-R468C is listed as “binds”.
